Data as given in the Human Domainome abundance scans (Beltran et al. 2025).
± gives the uncertainty stated by the source.

B1: RanBP-type and C3HC4-type zinc finger-containing protein 1, residues 369 to 411; numbered along this chain, Q9BYM8 (parent)
chain: YHCKTPDCKGWCFFEDDVNEFTCPVCFHVNCLLCKAIHEQMNC

Variants of: B1
Test: abundance fitness (aPCA) (normalised: wild type 0, dead -1); higher = more abundant; growth selection in yeast, the domain comes from the species named
Settings: Homo sapiens

**Q.** With YHCKTPDCKGWCFFEDDVNEFTCPVCFHVNCWLCKAIHEQMNC as the variant, how does the abundance fitness read?
**A.** -0.417 ± 0.058

**Q.** With YHCKTPDCKGWCFFEDDVNEFTCPVCFHVNCMLCKAIHEQMNC as the variant, how does the abundance fitness read?
**A.** -0.264 ± 0.087

**Q.** With YHCKTPDCKGWCFFEDDVNEFTCPVCFHVNCNLCKAIHEQMNC as the variant, how does the abundance fitness read?
**A.** -0.131 ± 0.14

**Q.** For YHCKTPDCKGWCFFEDDVNEFTCPVCFHVNCVLCKAIHEQMNC, which abundance fitness is on record?
**A.** -0.167 ± 0.051

**Q.** With YHCKTPDCKGWCFFEDDVNEFTCPVCFHVNCYLCKAIHEQMNC as the variant, how does the abundance fitness read?
**A.** -0.302 ± 0.062

**Q.** For YHCKTPDCKGWCFFEDDVNEFTCPVCFHVNCPLCKAIHEQMNC, which abundance fitness is on record?
**A.** -0.525 ± 0.063

**Q.** With YHCKTPDCKGWCFFEDDVNEFTCPVCFHVNCQLCKAIHEQMNC as the variant, how does the abundance fitness read?
**A.** -0.168 ± 0.065

**Q.** For YHCKTPDCKGWCFFEDDVNEFTCPVCFHVNCRLCKAIHEQMNC, which abundance fitness is on record?
**A.** 0.026 ± 0.039

**Q.** For YHCKTPDCKGWCFFEDDVNEFTCPVCFHVNCTLCKAIHEQMNC, which abundance fitness is on record?
**A.** -0.015 ± 0.05

**Q.** Which abundance fitness does the source give for YHCKTPDCKGWCFFEDDVNEFTCPVCFHVNCSLCKAIHEQMNC here?
**A.** -0.295 ± 0.055

**Q.** For YHCKTPDCKGWCFFEDDVNEFTCPVCFHVNCLLCKCIHEQMNC, which abundance fitness is on record?
**A.** -0.154 ± 0.071

**Q.** For YHCKTPDCKGWCFFEDDVNEFTCPVCFHVNCLPCKAIHEQMNC, which abundance fitness is on record?
**A.** 0.084 ± 0.058

**Q.** Which abundance fitness does the source give for YHCKTPDCKGWCFFEDDVNEFTCPVCFHVNCLNCKAIHEQMNC here?
**A.** -0.116 ± 0.1

**Q.** With YHCKTPDCKGWCFFEDDVNEFTCPVCFHVNCLVCKAIHEQMNC as the variant, how does the abundance fitness read?
**A.** -0.072 ± 0.045

**Q.** Which abundance fitness does the source give for YHCKTPDCKGWCFFEDDVNEFTCPVCFHVNCLFCKAIHEQMNC here?
**A.** -0.313 ± 0.14

**Q.** Which abundance fitness does the source give for YHCKTPDCKGWCFFEDDVNEFTCPVCFHVNCLHCKAIHEQMNC here?
**A.** -0.062 ± 0.055

**Q.** With YHCKTPDCKGWCFFEDDVNEFTCPVCFHVNCLWCKAIHEQMNC as the variant, how does the abundance fitness read?
**A.** -0.262 ± 0.049

**Q.** For YHCKTPDCKGWCFFEDDVNEFTCPVCFHVNCLYCKAIHEQMNC, which abundance fitness is on record?
**A.** -0.088 ± 0.22

**Q.** For YHCKTPDCKGWCFFEDDVNEFTCPVCFHVNCLECKAIHEQMNC, which abundance fitness is on record?
**A.** -0.073 ± 0.046

**Q.** Which abundance fitness does the source give for YHCKTPDCKGWCFFEDDVNEFTCPVCFHVNCLICKAIHEQMNC here?
**A.** -0.158 ± 0.18

**Q.** With YHCKTPDCKGWCFFEDDVNEFTCPVCFHVNCLDCKAIHEQMNC as the variant, how does the abundance fitness read?
**A.** -0.148 ± 0.09

**Q.** For YHCKTPDCKGWCFFEDDVNEFTCPVCFHVNCLTCKAIHEQMNC, which abundance fitness is on record?
**A.** -0.026 ± 0.057

**Q.** With YHCKTPDCKGWCFFEDDVNEFTCPVCFHVNCLSCKAIHEQMNC as the variant, how does the abundance fitness read?
**A.** -0.065 ± 0.045

**Q.** For YHCKTPDCKGWCFFEDDVNEFTCPVCFHVNCLKCKAIHEQMNC, which abundance fitness is on record?
**A.** 0.138 ± 0.043

**Q.** For YHCKTPDCKGWCFFEDDVNEFTCPVCFHVNCLMCKAIHEQMNC, which abundance fitness is on record?
**A.** 0.033 ± 0.12

**Q.** Which abundance fitness does the source give for YHCKTPDCKGWCFFEDDVNEFTCPVCFHVNCLCCKAIHEQMNC here?
**A.** -0.213 ± 0.078

**Q.** With YHCKTPDCKGWCFFEDDVNEFTCPVCFHVNCLLRKAIHEQMNC as the variant, how does the abundance fitness read?
**A.** -0.683 ± 0.05

**Q.** With YHCKTPDCKGWCFFEDDVNEFTCPVCFHVNCLLPKAIHEQMNC as the variant, how does the abundance fitness read?
**A.** -0.174 ± 0.067

**Q.** With YHCKTPDCKGWCFFEDDVNEFTCPVCFHVNCLLHKAIHEQMNC as the variant, how does the abundance fitness read?
**A.** -0.501 ± 0.059

**Q.** Which abundance fitness does the source give for YHCKTPDCKGWCFFEDDVNEFTCPVCFHVNCLLQKAIHEQMNC here?
**A.** -0.494 ± 0.048

**Q.** Which abundance fitness does the source give for YHCKTPDCKGWCFFEDDVNEFTCPVCFHVNCLLTKAIHEQMNC here?
**A.** -0.547 ± 0.068

**Q.** With YHCKTPDCKGWCFFEDDVNEFTCPVCFHVNCLLKKAIHEQMNC as the variant, how does the abundance fitness read?
**A.** -0.623 ± 0.11

**Q.** Which abundance fitness does the source give for YHCKTPDCKGWCFFEDDVNEFTCPVCFHVNCLLFKAIHEQMNC here?
**A.** -0.654 ± 0.11

**Q.** For YHCKTPDCKGWCFFEDDVNEFTCPVCFHVNCLLYKAIHEQMNC, which abundance fitness is on record?
**A.** -0.875 ± 0.16

**Q.** With YHCKTPDCKGWCFFEDDVNEFTCPVCFHVNCLLWKAIHEQMNC as the variant, how does the abundance fitness read?
**A.** -1.02 ± 0.094

**Q.** Which abundance fitness does the source give for YHCKTPDCKGWCFFEDDVNEFTCPVCFHVNCLLSKAIHEQMNC here?
**A.** -0.488 ± 0.052

**Q.** With YHCKTPDCKGWCFFEDDVNEFTCPVCFHVNCLLNKAIHEQMNC as the variant, how does the abundance fitness read?
**A.** -0.536 ± 0.24

**Q.** For YHCKTPDCKGWCFFEDDVNEFTCPVCFHVNCLLEKAIHEQMNC, which abundance fitness is on record?
**A.** -0.312 ± 0.044

**Q.** Which abundance fitness does the source give for YHCKTPDCKGWCFFEDDVNEFTCPVCFHVNCLLGKAIHEQMNC here?
**A.** -0.467 ± 0.044

**Q.** With YHCKTPDCKGWCFFEDDVNEFTCPVCFHVNCLLMKAIHEQMNC as the variant, how does the abundance fitness read?
**A.** -0.881 ± 0.087

**Q.** Which abundance fitness does the source give for YHCKTPDCKGWCFFEDDVNEFTCPVCFHVNCLLAKAIHEQMNC here?
**A.** -0.733 ± 0.05

**Q.** For YHCKTPDCKGWCFFEDDVNEFTCPVCFHVNCLLCVAIHEQMNC, which abundance fitness is on record?
**A.** -0.406 ± 0.05

**Q.** Which abundance fitness does the source give for YHCKTPDCKGWCFFEDDVNEFTCPVCFHVNCLLCGAIHEQMNC here?
**A.** 0.067 ± 0.044

**Q.** Which abundance fitness does the source give for YHCKTPDCKGWCFFEDDVNEFTCPVCFHVNCLLCMAIHEQMNC here?
**A.** -0.026 ± 0.07

**Q.** Which abundance fitness does the source give for YHCKTPDCKGWCFFEDDVNEFTCPVCFHVNCLLCPAIHEQMNC here?
**A.** -0.356 ± 0.063

**Q.** With YHCKTPDCKGWCFFEDDVNEFTCPVCFHVNCLLCSAIHEQMNC as the variant, how does the abundance fitness read?
**A.** -0.014 ± 0.057

**Q.** For YHCKTPDCKGWCFFEDDVNEFTCPVCFHVNCLLCQAIHEQMNC, which abundance fitness is on record?
**A.** -0.026 ± 0.06

**Q.** For YHCKTPDCKGWCFFEDDVNEFTCPVCFHVNCLLCFAIHEQMNC, which abundance fitness is on record?
**A.** -0.149 ± 0.059

**Q.** For YHCKTPDCKGWCFFEDDVNEFTCPVCFHVNCLLCIAIHEQMNC, which abundance fitness is on record?
**A.** -0.843 ± 0.18

**Q.** With YHCKTPDCKGWCFFEDDVNEFTCPVCFHVNCLLCTAIHEQMNC as the variant, how does the abundance fitness read?
**A.** -0.281 ± 0.042

**Q.** For YHCKTPDCKGWCFFEDDVNEFTCPVCFHVNCLLCYAIHEQMNC, which abundance fitness is on record?
**A.** -0.273 ± 0.061

**Q.** With YHCKTPDCKGWCFFEDDVNEFTCPVCFHVNCLLCEAIHEQMNC as the variant, how does the abundance fitness read?
**A.** -0.026 ± 0.057

**Q.** Which abundance fitness does the source give for YHCKTPDCKGWCFFEDDVNEFTCPVCFHVNCLLCAAIHEQMNC here?
**A.** -0.147 ± 0.046

**Q.** With YHCKTPDCKGWCFFEDDVNEFTCPVCFHVNCLLCCAIHEQMNC as the variant, how does the abundance fitness read?
**A.** -0.069 ± 0.1

**Q.** Which abundance fitness does the source give for YHCKTPDCKGWCFFEDDVNEFTCPVCFHVNCLLCRAIHEQMNC here?
**A.** -0.021 ± 0.043

**Q.** Which abundance fitness does the source give for YHCKTPDCKGWCFFEDDVNEFTCPVCFHVNCLLCHAIHEQMNC here?
**A.** -0.023 ± 0.067

**Q.** For YHCKTPDCKGWCFFEDDVNEFTCPVCFHVNCLLCLAIHEQMNC, which abundance fitness is on record?
**A.** -0.321 ± 0.051

**Q.** For YHCKTPDCKGWCFFEDDVNEFTCPVCFHVNCLLCDAIHEQMNC, which abundance fitness is on record?
**A.** -0.156 ± 0.1

**Q.** With YHCKTPDCKGWCFFEDDVNEFTCPVCFHVNCLLCWAIHEQMNC as the variant, how does the abundance fitness read?
**A.** -0.385 ± 0.064
